One series deals with HeLa-T4 cells. The class given is cell-based.
In series [1] the target is T1, SN-F, fusion glycoprotein of Sendai virus (Sendai virus (SN), UniProt P04855).
T1 sequence: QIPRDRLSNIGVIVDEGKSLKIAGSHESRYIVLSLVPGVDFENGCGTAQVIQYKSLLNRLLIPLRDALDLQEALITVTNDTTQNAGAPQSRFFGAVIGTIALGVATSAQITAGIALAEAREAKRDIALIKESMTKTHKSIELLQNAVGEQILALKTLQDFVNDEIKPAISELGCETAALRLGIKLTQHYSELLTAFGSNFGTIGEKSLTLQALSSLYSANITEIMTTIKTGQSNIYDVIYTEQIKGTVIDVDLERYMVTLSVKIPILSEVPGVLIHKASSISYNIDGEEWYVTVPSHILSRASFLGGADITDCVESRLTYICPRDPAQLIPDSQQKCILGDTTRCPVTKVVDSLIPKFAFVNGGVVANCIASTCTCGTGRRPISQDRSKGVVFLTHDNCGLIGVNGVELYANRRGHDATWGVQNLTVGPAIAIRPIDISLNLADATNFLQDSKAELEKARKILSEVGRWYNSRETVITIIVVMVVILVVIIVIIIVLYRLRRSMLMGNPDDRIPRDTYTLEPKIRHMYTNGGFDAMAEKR
Description: cell-based or functional assay.

Another series has as its system guinea pig erythrocytes. In kind it is cell-based.
The target in a further series is T2, SN-F (Sendai virus, UniProt P04855).
T2 sequence (P04855 117-565 limits assumed): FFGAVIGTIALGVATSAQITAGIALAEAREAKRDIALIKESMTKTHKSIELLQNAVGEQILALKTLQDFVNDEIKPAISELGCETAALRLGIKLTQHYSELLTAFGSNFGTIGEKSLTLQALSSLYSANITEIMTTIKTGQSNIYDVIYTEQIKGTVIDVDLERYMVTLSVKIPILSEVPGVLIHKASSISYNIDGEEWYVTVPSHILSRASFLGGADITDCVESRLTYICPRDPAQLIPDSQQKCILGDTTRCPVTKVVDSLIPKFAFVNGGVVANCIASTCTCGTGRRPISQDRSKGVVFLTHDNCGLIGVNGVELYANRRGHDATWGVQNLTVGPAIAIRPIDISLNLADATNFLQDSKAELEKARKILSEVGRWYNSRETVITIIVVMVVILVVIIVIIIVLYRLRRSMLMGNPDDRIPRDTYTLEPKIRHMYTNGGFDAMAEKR
T2 sequence (P04855 26-116 partner limits assumed): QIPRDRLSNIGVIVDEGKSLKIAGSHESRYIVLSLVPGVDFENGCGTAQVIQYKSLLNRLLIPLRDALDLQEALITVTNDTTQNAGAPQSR
In kind it is cell-based.

Substitutions are numbered along the chain they refer to.

B1: SN(59-140) chimeric HN protein (other)
chain: MEYWKHTNHGKDAGNELETSMATHGNKITNKITYILWTIILVLLSIVFIIVLINSIKSSARQGYSMKEYSMTVEALNMSSREVKESLTSLIRQEVIARAVNIQSSVQTGIPVLLNKNSRDVIQMIDKSCSRQELTQHCESRITHDVGIKPLNPDDFWRCTSGLPSLMKTPKIRLMPGPGLLAMPTTVDGCVRTPSLVINDLIYAYTSNLITRGCQDIGKSYQVLQIGIITVNSDLVPDLNPRISHTFNINDNRKSCSLALLNTDVYQLCSTPKVDERSDYASSGIEDIVLDIVNHDGSISTTRFKNNNISFDQPYAALYPSVGPGIYYKGKIIFLGYGGLEHPINENAICNTTGCPGKTQRDCNQASHSPWFSDRRMVNSIIVVDKGLNSIPKLKVWTISMRQNYWGSEGRLLLLGNKIYIYTRSTSWHSKLQLGIIDITDYSDIRIKWTWHNVLSRPGNNECPWGHSCPDGCITGVYTDAYPLNPTGSIVSSVILDSQKSRVNPVITYSTSTERVNELAIRNKTLSAGYTTTSCITHYNKGYCFHIVEINHKSLDTFQPMLFKTEIPKSCS
Consider B1, for which the “Cell surface expression (%)” value in the series with HeLa-T4 cells turned out to be 82.3%. In addition, the “Fusion activity (%), β-galactosidase production in the fusion dependent reporter gene activation assay” value (“Fusion activity (%)” below) in series [1] was 8.82 % of SN-HN wt with SN-F. In addition, in the series with guinea pig erythrocytes, the “HAD activity as percentage of wild type SN-HN hemadsorption” value (“HAD activity as percentage” for short) was “comparable or higher HAD activity than that of SN-HN” and the “hemadsorption observed under the microscope” value (shortened to “hemadsorption observed”) is reported as “high levels of hemadsorption”. Moreover, in the series with SN-F, the “Relative fusion promoting activity b/a” value amounted to 0.11 and the “fusion promoting activity, percentage of wild type SN-HN” value amounted to 8.8%.

B2: SN-HN: wild type Sendai virus hemagglutinin-neuraminidase (HN) protein (protein)
chain: MDGDRGKRDSYWSTSPSGSTTKPASGWERSSKADTWLLILSFTQWALSIATVIICIIISARQGYSMKEYSMTVEALNMSSREVKESLTSLIRQEVIARAVNIQSSVQTGIPVLLNKNSRDVIQMIDKSCSRQELTQHCESTIAVHHADGIAPLEPHSFWRCPVGEPYLSSDPEISLLPGPSLLSGSTTISGCVRLPSLSIGEAIYAYSSNLITQGCADIGKSYQVLQLGYISLNSDMFPDLNPVVSHTYDINDNRKSCSVVATGTRGYQLCSMPTVDERTDYSSDGIEDLVLDVLDLKGRTKSHRYRNSEVDLDHPFSALYPSVGNGIATEGSLIFLGYGGLTTPLQGDTKCRTQGCQQVSQDTCNEALKITWLGGKQVVSVIIQVNDYLSERPKIRVTTIPITQNYLGAEGRLLKLGDRVYIYTRSSGWHSQLQIGVLDVSHPLTINWTPHEALSRPGNKECNWYNKCPKECISGVYTDAYPLSPDAANVATVTLYANTSRVNPTIMYSNTTNIINMLRIKDVQLEAAYTTTSCITHFGKGYCFHIIEINQKSLNTLQPMLFKTSIPKLCKAES
For the molecule B2, in the series on HeLa-T4 cells, the “Cell surface expression (%)” value came to 163.9%. Further, the “hemadsorption observed” value with guinea pig erythrocytes is on record as “high levels of hemadsorption”. Further, in the series with SN-F, the “Fusion activity (5)” value is 100.00, the “Relative fusion promoting activity b/a” value is 0.61 and the “cell fusion / syncytium formation with SN-F observed by microscopy” value (from here on “cell fusion / syncytium formation”) was “Extensive cell fusion”.

B3: PI3-HN: wild type human parainfluenza type 3 virus HN protein (protein)
chain: MEYWKHTNHGKDAGNELETSMATHGNKITNKITYILWTIILVLLSIVFIIVLINSIKSEKAHESLLQDVNNEFMEVTEKIQMASDNINDLIQSGVNTRLLTIQSHVQNYIPISLTQQMSDLRKFISEITIRNDNQEVPPQRITHDVGIKPLNPDDFWRCTSGLPSLMKTPKIRLMPGPGLLAMPTTVDGCVRTPSLVINDLIYAYTSNLITRGCQDIGKSYQVLQIGIITVNSDLVPDLNPRISHTFNINDNRKSCSLALLNTDVYQLCSTPKVDERSDYASSGIEDIVLDIVNHDGSISTTRFKNNNISFDQPYAALYPSVGPGIYYKGKIIFLGYGGLEHPINENAICNTTGCPGKTQRDCNQASHSPWFSDRRMVNSIIVVDKGLNSIPKLKVWTISMRQNYWGSEGRLLLLGNKIYIYTRSTSWHSKLQLGIIDITDYSDIRIKWTWHNVLSRPGNNECPWGHSCPDGCITGVYTDAYPLNPTGSIVSSVILDSQKSRVNPVITYSTSTERVNELAIRNKTLSAGYTTTSCITHYNKGYCFHIVEINHKSLDTFQPMLFKTEIPKSCS
Consider B3, for which the “Cell surface expression (%)” value with HeLa-T4 cells is 100.0%. For the same molecule, in the series with SN-F, the “Fusion activity (5)” value is given as 3.47, the “Relative fusion promoting activity b/a” value is given as 0.03 and the “cell fusion / syncytium formation” value was “no cell fusion was observed”.

B4: SN(44-140) chimeric HN protein (other)
chain: MEYWKHTNHGKDAGNELETSMATHGNKITNKITYILWTIILVLQWALSIATVIICIIISARQGYSMKEYSMTVEALNMSSREVKESLTSLIRQEVIARAVNIQSSVQTGIPVLLNKNSRDVIQMIDKSCSRQELTQHCESRITHDVGIKPLNPDDFWRCTSGLPSLMKTPKIRLMPGPGLLAMPTTVDGCVRTPSLVINDLIYAYTSNLITRGCQDIGKSYQVLQIGIITVNSDLVPDLNPRISHTFNINDNRKSCSLALLNTDVYQLCSTPKVDERSDYASSGIEDIVLDIVNHDGSISTTRFKNNNISFDQPYAALYPSVGPGIYYKGKIIFLGYGGLEHPINENAICNTTGCPGKTQRDCNQASHSPWFSDRRMVNSIIVVDKGLNSIPKLKVWTISMRQNYWGSEGRLLLLGNKIYIYTRSTSWHSKLQLGIIDITDYSDIRIKWTWHNVLSRPGNNECPWGHSCPDGCITGVYTDAYPLNPTGSIVSSVILDSQKSRVNPVITYSTSTERVNELAIRNKTLSAGYTTTSCITHYNKGYCFHIVEINHKSLDTFQPMLFKTEIPKSCS
On to B4, for which the “Cell surface expression (%)” value in the series on HeLa-T4 cells was determined as 126.6%. In addition, the “Fusion activity (%)” value in series [1] is 88.7 % of SN-HN wt with SN-F. In the series on guinea pig erythrocytes, the “HAD activity as percentage” value is listed as “comparable or higher HAD activity than that of SN-HN” and the “hemadsorption observed” value is “high levels of hemadsorption”. Moreover, the “Relative fusion promoting activity b/a” value with SN-F is 0.70.

B5: SN(54-140) chimeric HN protein (other)
chain: B1 chain with N54I, S55C, K57I, S58I
In the case of B5, the “Cell surface expression (%)” value with HeLa-T4 cells was determined as 131.5%. Further, the “Fusion activity (%)” value in series [1] was 55.3 % of SN-HN wt with SN-F. Besides, in the series on guinea pig erythrocytes, the “HAD activity as percentage” value is “comparable or higher HAD activity than that of SN-HN” and the “hemadsorption observed” value is given as “high levels of hemadsorption”. For the same molecule, in the series with SN-F, the “Relative fusion promoting activity b/a” value is given as 0.42.

B6: SN(140) chimeric HN protein (other)
chain: MDGDRGKRDSYWSTSPSGSTTKPASGWERSSKADTWLLILSFTQWALSIATVIICIIISARQGYSMKEYSMTVEALNMSSREVKESLTSLIRQEVIARAVNIQSSVQTGIPVLLNKNSRDVIQMIDKSCSRQELTQHCESRITHDVGIKPLNPDDFWRCTSGLPSLMKTPKIRLMPGPGLLAMPTTVDGCVRTPSLVINDLIYAYTSNLITRGCQDIGKSYQVLQIGIITVNSDLVPDLNPRISHTFNINDNRKSCSLALLNTDVYQLCSTPKVDERSDYASSGIEDIVLDIVNHDGSISTTRFKNNNISFDQPYAALYPSVGPGIYYKGKIIFLGYGGLEHPINENAICNTTGCPGKTQRDCNQASHSPWFSDRRMVNSIIVVDKGLNSIPKLKVWTISMRQNYWGSEGRLLLLGNKIYIYTRSTSWHSKLQLGIIDITDYSDIRIKWTWHNVLSRPGNNECPWGHSCPDGCITGVYTDAYPLNPTGSIVSSVILDSQKSRVNPVITYSTSTERVNELAIRNKTLSAGYTTTSCITHYNKGYCFHIVEINHKSLDTFQPMLFKTEIPKSCS
Regarding B6, the “Cell surface expression (%)” value in the series on HeLa-T4 cells is reported as 68.1%. In series [1], the “Fusion activity (%)” value was 44.6 % of SN-HN wt with SN-F. In the series with guinea pig erythrocytes, the “HAD activity as percentage” value was “comparable or higher HAD activity than that of SN-HN” and the “hemadsorption observed” value is reported as “high levels of hemadsorption”. Further, in the series with SN-F, the “Relative fusion promoting activity b/a” value is on record as 0.66 and the “cell fusion / syncytium formation” value is reported as “lower level of syncytium formation”.

B7: SN(137) chimeric HN protein (other)
chain: B6 chain with C138P, E139P, S140Q
With B7, the “Fusion activity (%)” value in series [1] was 0 % of SN-HN wt with SN-F. For the same molecule, in the series with guinea pig erythrocytes, the “HAD activity as percentage” value is recorded as 27.5% and the “hemadsorption observed” value is given as “lower activities”. Also, the “fusion promoting activity, percentage of wild type SN-HN” value with SN-F is reported as “did not show any significant fusion promoting activity”.

B8: SN(27-140) chimeric HN protein (other)
chain: MEYWKHTNHGKDAGNELETSMATHGNWERSSKADTWLLILSFTQWALSIATVIICIIISARQGYSMKEYSMTVEALNMSSREVKESLTSLIRQEVIARAVNIQSSVQTGIPVLLNKNSRDVIQMIDKSCSRQELTQHCESRITHDVGIKPLNPDDFWRCTSGLPSLMKTPKIRLMPGPGLLAMPTTVDGCVRTPSLVINDLIYAYTSNLITRGCQDIGKSYQVLQIGIITVNSDLVPDLNPRISHTFNINDNRKSCSLALLNTDVYQLCSTPKVDERSDYASSGIEDIVLDIVNHDGSISTTRFKNNNISFDQPYAALYPSVGPGIYYKGKIIFLGYGGLEHPINENAICNTTGCPGKTQRDCNQASHSPWFSDRRMVNSIIVVDKGLNSIPKLKVWTISMRQNYWGSEGRLLLLGNKIYIYTRSTSWHSKLQLGIIDITDYSDIRIKWTWHNVLSRPGNNECPWGHSCPDGCITGVYTDAYPLNPTGSIVSSVILDSQKSRVNPVITYSTSTERVNELAIRNKTLSAGYTTTSCITHYNKGYCFHIVEINHKSLDTFQPMLFKTEIPKSCS
On to B8, for which the “Cell surface expression (%)” value with HeLa-T4 cells is given as 75.6%. Further, the “Fusion activity (%)” value in series [1] is 79.7 % of SN-HN wt with SN-F. In addition, in the series with guinea pig erythrocytes, the “HAD activity as percentage” value is recorded as “comparable or higher HAD activity than that of SN-HN” and the “hemadsorption observed” value is listed as “high levels of hemadsorption”. Besides, the “cell fusion / syncytium formation” value with SN-F was “Syncytium formation was observed”.

The values above are taken from patent US5969094A, “Anti-paramyxovirus screening method and vaccine” (Emory University, priority 1996, dated 1999).
